In patent US20050221381A1, “Method for isolating ligands” (priority 2002, published 2005):
Read-outs that look alike come from different tables or passages of the source.

Key:
[1] = test system: PBMC (CD4 and CD8 positive T-cell compartments); assay: Intracellular IFN-γ staining combined with surface staining for CD4, CD8, CD69 (FACS); assay type: cell-based, human; details: donor 10687, peptide 80 μg/ml (FIG. 11)
Method: To distinguish between CD8-positive CTL mediated or CD4-positive HTL mediated reactivity, intracellular cytokine staining combined with staining for surface markers was performed: after thawing, PBMNC were kept overnight (37° C., 5% CO2) in RPMI1640 with 10% human serum type AB (BioWhittaker). Next day aliquots of 2 million PBMNC were incubated with peptide (80 μg/ml) or Concanavalin A (SIGMA). After 1 h, 10 μg/ml brefeldin A (SIGMA) were added and incubation was continued for 5 hours. Surface staining for CD4 (phycoerythrin), CD8 (cychrome), CD69 (allophycocyanine) was done with antibodies labelled as indicated (Pharmingen, San Diego, Calif., USA). After fixation with 1% para-formaldehyde in PBS, cells were permeabilized by incubating for 15 min in 0.5% BSA/0.1% Na-azide/0.1% saponin in PBS. Intracellular cytokines were stained with anti-IFN-γ (FITC) antibody 4S.B3 (Pharmingen). Samples (100,000 events in the lymphocyte gate) were read on a FACScalibur (Becton Dickinson).
FIG. 11: Confirmation of simultaneous CD4+ and CD8+ T-cell responses against CMVpp65 15mers 469, 470 by intracellular IFN-γ staining. PBMC from 2 donors (10687, 10788) were stimulated with either ConA as positive control (1st column), 15mers containing both putative class I and class II epitopes (columns 2 and 3) or medium as negative control (right column). Cells were stained for intracellular IFN-γ (x-axis) or surface the T-cell differentiation markers CD4 or CD8 (y-axis). Percentage in upper-right quadrant is indicated, numbers significant over background are shown boldface.

CD4+ T cells = details: healthy, CMV-exposed human subjects; partially or fully identical sequences; cited from earlier work
[2] = biological target: T1, soluble DRB1*0101 molecules (Homo sapiens, UniProt P01903+P01911, A100R/D57E/F55L/F60I/F76Y/I96L/L162R/M171V/P40L/Q125E/R42F/V115G/Y59C); assay: Peptide binding assay, SDS-stability assay; design: key: −: no binding/T cell response; +/−: weak binding/T cell response; +: intermediate binding/T cell response; ++: strong binding/T cell response; details: soluble DRB1*0101 molecules
T1 construct: Soluble HLA class I A*0201 and HLA class II DRA1*0101/DRB1*0101/Ii, DRA1*0101/DRB1*0401/Ii and DRA1*0101/DRB1*0404/Ii molecules were expressed in SC-2 cells; made in house; host or cells: SC-2 cells

[3] = biological target: T2, soluble DRB1*0401 molecules (DR4) (Homo sapiens, UniProt P01903+P01911, A100K/A169T/F76Y/I96L/K127E/L162R/M171V/N62H/P40V/Q125Y/R42H/S133A/S149N/S66Y/V115G/V209L/W38E); assay type: binding; design: key: −: no binding; +/−: weak binding; +: intermediate binding; ++: strong binding; details: individual pp65 15mer, SDS-stability assay
T2 construct: Soluble HLA class I A*0201 and HLA class II DRA1*0101/DRB1*0101/Ii, DRA1*0101/DRB1*0401/Ii and DRA1*0101/DRB1*0404/Ii molecules were expressed in SC-2 cells; made in house; host or cells: SC-2 cells

DRB1*1101 = DRB1*1101 (Homo sapiens, UniProt P01903+P01911, A100R/A169T/A87E/I96F/K41T/L162R/M171V/P40S/Q125H/Q178H/Q39Y/Q99D/R42S/S66Y/T262R/V115G/W38E); assay: Peptide-competition assay with biotinylated CLIP peptide (ELISA); assay type: binding; design: key: −: no binding/T cell response; +/−: weak binding/T cell response; +: intermediate binding/T cell response; ++: strong binding/T cell response; details: DRB1*1101
DRB1*0701 = DRB1*0701 (Homo sapiens, UniProt P01903+P01911, A100R/A102G/A103Q/D57E/D86V/E43K/F76Y/K127E/L162R/M171V/P40G/Q125H/Q99D/R33Q/R42Y/R54Q/S133A/S66F/T210M/V115G/Y107V/Y59L/Y89S); assay: as above; assay type: binding; design: key: −: no binding/T cell response; +/−: weak binding/T cell response; +: intermediate binding/T cell response; ++: strong binding/T cell response; details: DRB1*0701
[4] = biological target: T2, soluble DRB1*0401 molecules (DR4); assay type: binding; design: key to Binding to DRB1 *0401: −: no binding/T cell response; +/−: weak binding/T cell response; +: intermediate binding/T cell response; ++: strong binding/T cell response; details: soluble DRB1*0401 molecules
[5] = test system: HLA-DRB1*0401-transgenic mice splenocytes; assay type: in vivo, mouse; design: key to DRB1*0401 mice total SC (T cell response) / DRB1*0401 mice CD4+ (T cell response): −: no binding/T cell response; +/−: weak binding/T cell response; +: intermediate binding/T cell response; ++: strong binding/T cell response
[6] = test system: DRB1*0401, DRB1*0101, DRB1*0404, DRB1*0701 and DRB1*1101; assay: Binding to soluble HLA molecules of different allels (promiscuity); design: species or system human
Method: In peptide binding reactions HLA molecules were used in a concentration of 0.5 μM, and each single peptide was added in 10-fold molar excess (5 μM) if not mentioned differently. […] The reaction was performed in PBS buffer (pH 7.4) at room temperature for 48 hours in the presence of a protease inhibitor cocktail (Roche) and 0.1% octyl-b-D-glucopyranoside (Sigma).
Peptide binding was evaluated in an SDS-stability assay (Gorga et al., 1987): trimeric HLA class II ab-peptide complexes are resistant to SDS and consequently appear as ˜60 kDa band in SDS-PAGE Western blot analysis. Individual HLA class II α and β chains not stabilized by a peptide binding with intermediate to high affinity migrate as ˜35 kDa and ˜30 kDa bands, respectively.
The binding affinities to DRB1*0701 and DRB1*1101 were tested by a peptide-competition assay (Reay et al., 1992). Briefly, binding of the biotinylated CLIP peptide (reference peptide) has been used for monitoring of HLA:peptide complex formation. […] In the case of lower affinity peptides they should be added in excess to the reference peptide to compete for occupancy of HLA binding grove. […] Alternatively, comparing of the amount of reference peptide bound to HLA molecules in the presence or absence of competitor peptide one can determine the binding activity of the peptide of interest.
In the present peptide-competition assay conditions of peptide binding were similar to described above. Soluble HLA molecules were used in the concentration of 0.5 μM and biotinylated CLIP was added to all samples in the final concentration of 2 μM. Competitor peptides were added in three different concentrations: 0.25, 5 and 100 μM. Binding reaction was performed in PBS buffer (pH 7.4) for 18 hours at 37° C. […] Briefly, MaxiSorb 96-well plates (Nunc, Denmark) were coated with mouse anti-αβ antibody L243 (purified from ATCC HB-55) by overnight incubation with 50 μl of 10 μg/ml dilution in PBS at 4° C. Non-specific binding to the plastic was blocked by incubation with T-PBS containing 3% of BSA for 2 hours at 37° C. and binding reactions were then “captured” for 2 hours at room temperature. […] The optical density at 405 nm was measured on a microplate reader SUNRISE (Tecan).
Some of the identified DRB1*0401 binding peptides, as well as others chosen by prediction algorithms were also tested for binding to soluble HLA molecules of different allels: DRB1*0101, DRB1*0404, DRB1*0701 and DRB1*1101 (Table 3).

[7] = biological target: T3, soluble DRB1*0404 molecules (Homo sapiens, UniProt P01903+P01911, A100R/A169T/F76Y/I96L/K127E/L162R/M171V/N62H/P40V/Q125Y/R42H/S133A/S149N/S66Y/V209L/W38E); assay: Peptide binding assay, SDS-stability assay; design: key: −: no binding/T cell response; +/−: weak binding/T cell response; +: intermediate binding/T cell response; ++: strong binding/T cell response; details: soluble DRB1*0404 molecules
T3 construct: Soluble HLA class I A*0201 and HLA class II DRA1*0101/DRB1*0101/Ii, DRA1*0101/DRB1*0401/Ii and DRA1*0101/DRB1*0404/Ii molecules were expressed in SC-2 cells; made in house; host or cells: SC-2 cells

[8] = biological target: T2, soluble DRB1*0401 molecules (DR4); assay type: binding; design: key: +++: high binding affinity; ++: moderate binding affinity; +: low binding affinity; −: no binding; details: individual pp65 15mer, SDS-stability assay
[9] = test system: PBMC from CMV seropositive donors; assay type: cell-based, human
[10] = biological target: T3, soluble DRB1*0404 molecules; assay: Peptide binding assay, SDS-stability assay; design: key: +++: high binding affinity; ++: moderate binding affinity; +: low binding affinity; −: no binding; details: individual pp65 15mer
[11] = biological target: T1, soluble DRB1*0101 molecules; assay: Peptide binding assay, SDS-stability assay; design: key: +++: high binding affinity; ++: moderate binding affinity; +: low binding affinity; −: no binding; details: individual pp65 15mer
[12] = IFN-gamma ELISpot, enriched CD4+ fraction of splenocytes of HLA-DR4 transgenic mice vaccinated with the longer peptide, ex vivo re-stimulation
[13] = IFN-gamma ELISpot, total splenocytes of HLA-DR4 transgenic mice vaccinated with the longer peptide, ex vivo re-stimulation

| Sequence | Specific CD4+ T cells response described earlier (CD4+ T cells) | Binding to DRB1*0401 [3] | Binding to DRB1 *0401 [4] | DRB1*0401 mice CD4+ (T cell response) [5, 12] | DRB1*0401 mice total SC (T cell response) [5, 13] | other results |
| --- | --- | --- | --- | --- | --- | --- |
| AGILARNLVPMVATV [Peptide 489] |  |  |  |  |  | Intracellular IFN-γ in CD4 and CD8 positive T-cell compartments [1]: only CD8 mediated IFN-γ secretion |
| EPDVYYTSAFVFPTK [Peptide 177] | capable to evoke specific CD4+ T cells response | + | + | + | + | Binding to DRB1*0101 [2]: ++; Binding to DRB1 1101 (DRB1*1101): +; Binding to DRB1 *0701 (DRB1*0701): −; Affinity for several HLA molecules (promiscuity) [6]: affinity for at least two HLA molecules; Binding to DRB1*0404 [7]: − |
| GGAIAGASTSAGRKR [Peptide 423] |  |  |  |  |  | Binding to DRB1*0401 [8]: −; Induction of IFN-gamma secretion in T cells / PBMC from CMV seropositive donors [9]: can induce functional, IFN-gamma secreting T cells in humans; Binding to DRB1*0404 [10]: − |
| KEPDVYYTSAFVFPT [Peptide 176] |  | +/− | +/− | + | + | Binding to DRB1*0101 [11]: − |
| LKYQEFFWDANDIYR [Peptide 508] | capable to evoke specific CD4+ T cells response | +/− | +/− | ++ | ++ |  |
| NLKYQEFFWDANDIY [Peptide 507] | capable to evoke specific CD4+ T cells response | +/− | +/− | + | ++ | Binding to DRB1*0101 [2]: −; Binding to DRB1 1101 (DRB1*1101): −; Binding to DRB1 *0701 (DRB1*0701): −; Binding to DRB1*0404 [7]: − |
| PQYSEHPTFTSQYRI [Peptide 361] | capable to evoke specific CD4+ T cells response |  |  |  |  | DRB1*0401 mice CD4+ (T cell response) ([5]; mouse, in vivo): ++; DRB1*0401 mice total SC (T cell response) ([5]; mouse, in vivo, sc): + |
| TDEDSDNEIHNPAVF [Peptide 468] |  |  |  |  |  | Binding to DRB1*0401 [8]: −; Binding to DRB1*0404 [10]: − |
